The values that follow come from FireProtDB (doi:10.1126/science.aai7825).

B1: Integration host factor subunit alpha wild type, P0A6X7 (protein)
chain: MALTKAEMSEYLFDKLGLSKRDAKELVELFFEEIRRALENGEQVKLSGFGNFDLRDKNQRPGRNPKTGEDIPITARRVVTFRPGQKLKSRVENASPKDE
B2: Mannosyl-3-phosphoglycerate phosphatase wild type, P76329 (protein)
chain: MFSIQQPLLVFSDLDGTLLDSHSYDWQPAAPWLTRLREANVPVILCSSKTSAEMLYLQKTLGLQGLPLIAENGAVIQLAEQWQEIDGFPRIISGISHGEISLVLNTLREKEHFKFTTFDDVDDATIAEWTGLSRSQAALTQLHEASVTLIWRDSDERMAQFTARLNELGLQFMQGARFWHVLDASAGKDQAANWIIATYQQLSGKRPTTLGLGDGPNDAPLLEVMDYAVIVKGLNREGVHLHDEDPARVWRTQREGPEGWREGLDHFFSAR
B3: Phosphoribosylglycinamide formyltransferase wild type, P08179 (protein)
chain: MNIVVLISGNGSNLQAIIDACKTNKIKGTVRAVFSNKADAFGLERARQAGIATHTLIASAFDSREAYDRELIHEIDMYAPDVVVLAGFMRILSPAFVSHYAGRLLNIHPSLLPKYPGLHTHRQALENGDEEHGTSVHFVTDELDGGPVILQAKVPVFAGDSEDDITARVQTQEHAIYPLVISWFADGRLKMHENAAWLDGQRLPPQGYAADE
B4: GTPase ObgE/CgtA wild type, P42641 (protein)
chain: MKFVDEASILVVAGDGGNGCVSFRREKYIPKGGPDGGDGGDGGDVWMEADENLNTLIDYRFEKSFRAERGQNGASRDCTGKRGKDVTIKVPVGTRVIDQGTGETMGDMTKHGQRLLVAKGGWHGLGNTRFKSSVNRTPRQKTNGTPGDKRELLLELMLLADVGMLGMPNAGKSTFIRAVSAAKPKVADYPFTTLVPSLGVVRMDNEKSFVVADIPGLIEGAAEGAGLGIRFLKHLERCRVLLHLIDIDPIDGTDPVENARIIISELEKYSQDLATKPRWLVFNKIDLLDKVEAEEKAKAIAEALGWEDKYYLISAASGLGVKDLCWDVMTFIIENPVVQAEEAKQPEKVEFMWDDYHRQQLEEIAEEDDEDWDDDWDEDDEEGVEFIYKR
B5: dTDP-4-dehydrorhamnose 3,5-epimerase wild type, P37745 (protein)
chain: MNVIRTEIEDVLILEPRVFGDDRGFFYESFNQSAFEHILGYPVSFVQDNHSRSSKNVLRGLHFQRGEYAQDKLVRCTHGAVFDVAVDIRPNSVSFGKWVGVLLSADNKQQLWIPKGFAHGFLVLSDIAEFQYKTTNYYHPESDCGICWNDERIAIDWPQTSGLILSPKDERLFTLDELIRLKLIA
B6: Protein GrpE wild type, P09372 (protein)
chain: MSSKEQKTPEGQAPEEIIMDQHEEIEAVEPEASAEQVDPRDEKVANLEAQLAEAQTRERDGILRVKAEMENLRRRTELDIEKAHKFALEKFINELLPVIDSLDRALEVADKANPDMSAMVEGIELTLKSMLDVVRKFGVEVIAETNVPLDPNVHQAIAMVESDDVAPGNVLGIMQKGYTLNGRTIRAAMVTVAKAKA
B7: Ribosomal small subunit pseudouridine synthase A wild type, P0AA43 (protein)
chain: MRLDKFIAQQLGVSRAIAGREIRGNRVTVDGEIVRNAAFKLLPEHDVAYDGNPLAQQHGPRYFMLNKPQGYVCSTDDPDHPTVLYFLDEPVAWKLHAAGRLDIDTTGLVLMTDDGQWSHRITSPRHHCEKTYLVTLESPVADDTAEQFAKGVQLHNEKDLTKPAVLEVITPTQVRLTISEGRYHQVKRMFAAVGNHVVELHRERIGGITLDADLAPGEYRPLTEEEIASVV
B8: Glucokinase wild type, P0A6V8 (protein)
chain: MTKYALVGDVGGTNARLALCDIASGEISQAKTYSGLDYPSLEAVIRVYLEEHKVEVKDGCIAIACPITGDWVAMTNHTWAFSIAEMKKNLGFSHLEIINDFTAVSMAIPMLKKEHLIQFGGAEPVEGKPIAVYGAGTGLGVAHLVHVDKRWVSLPGEGGHVDFAPNSEEEAIILEILRAEIGHVSAERVLSGPGLVNLYRAIVKADNRLPENLKPKDITERALADSCTDCRRALSLFCVIMGRFGGNLALNLGTFGGVFIAGGIVPRFLEFFKASGFRAAFEDKGRFKEYVHDIPVYLIVHDNPGLLGSGAHLRQTLGHIL
B9: Transcriptional regulatory protein CusR wild type, P0ACZ8 (protein)
chain: MKLLIVEDEKKTGEYLTKGLTEAGFVVDLADNGLNGYHLAMTGDYDLIILDIMLPDVNGWDIVRMLRSANKGMPILLLTALGTIEHRVKGLELGADDYLVKPFAFAELLARVRTLLRRGAAVIIESQFQVADLMVDLVSRKVTRSGTRITLTSKEFTLLEFFLRHQGEVLPRSLIASQVWDMNFDSDTNAIDVAVKRLRGKIDNDFEPKLIQTVRGVGYMLEVPDGQ
B10: dTDP-glucose 4,6-dehydratase 1 wild type, P37759 (protein)
chain: MKILVTGGAGFIGSAVVRHIINNTQDSVVNVDKLTYAGNRESLADVSDSERYVFEHADICDAPAMARIFAQHQPDAVMHLAAESHVDRSITGPAAFIETNIVGTYVLLEAARNYWSALDSDKKNSFRFHHISTDEVYGDLPHPDEVNNTEELPLFTETTAYAPSSPYSASKASSDHLVRAWKRTYGLPTIVTNCSNNYGPYHFPEKLIPLVILNALEGKALPIYGKGDQIRDWLYVEDHARALYTVVTEGKAGETYNIGGHNEKKNIDVVLTICDLLDEIVPKEKSYREQITYVADRPGHDRRYAIDAEKIGRALGWKPQETFESGIRKTVEWYLSNTKWVDNVKSGAYQSWIEQNYEGRQ
B11: Probable ATP-dependent transporter SufC wild type, P77499 (protein)
chain: MLSIKDLHVSVEDKAILRGLSLDVHPGEVHAIMGPNGSGKSTLSATLAGREDYEVTGGTVEFKGKDLLALSPEDRAGEGIFMAFQYPVEIPGVSNQFFLQTALNAVRSYRGQETLDRFDFQDLMEEKIALLKMPEDLLTRSVNVGFSGGEKKRNDILQMAVLEPELCILDESDSGLDIDALKVVADGVNSLRDGKRSFIIVTHYQRILDYIKPDYVHVLYQGRIVKSGDFTLVKQLEEQGYGWLTEQQ
B12: UDP-glucose 4-epimerase wild type, P09147 (protein)
chain: MRVLVTGGSGYIGSHTCVQLLQNGHDVIILDNLCNSKRSVLPVIERLGGKHPTFVEGDIRNEALMTEILHDHAIDTVIHFAGLKAVGESVQKPLEYYDNNVNGTLRLISAMRAANVKNFIFSSSATVYGDQPKIPYVESFPTGTPQSPYGKSKLMVEQILTDLQKAQPDWSIALLRYFNPVGAHPSGDMGEDPQGIPNNLMPYIAQVAVGRRDSLAIFGNDYPTEDGTGVRDYIHVMDLADGHVVAMEKLANKPGVHIYNLGAGVGNSVLDVVNAFSKACGKPVNYHFAPRREGDLPAYWADASKADRELNWRVTRTLDEMAQDTWHWQSRHPQGYPD
B13: UTP--glucose-1-phosphate uridylyltransferase wild type, P0AEP3 (protein)
chain: MAAINTKVKKAVIPVAGLGTRMLPATKAIPKEMLPLVDKPLIQYVVNECIAAGITEIVLVTHSSKNSIENHFDTSFELEAMLEKRVKRQLLDEVQSICPPHVTIMQVRQGLAKGLGHAVLCAHPVVGDEPVAVILPDVILDEYESDLSQDNLAEMIRRFDETGHSQIMVEPVADVTAYGVVDCKGVELAPGESVPMVGVVEKPKADVAPSNLAIVGRYVLSADIWPLLAKTPPGAGDEIQLTDAIDMLIEKETVEAYHMKGKSHDCGNKLGYMQAFVEYGIRHNTLGTEFKAWLEEEMGIKK
B14: Putative NAD(P)H nitroreductase YdjA wild type, P0ACY1 (protein)
chain: MDALELLINRRSASRLAEPAPTGEQLQNILRAGMRAPDHKSMQPWHFFVIEGEGRERFSAVLEQGAIAAGSDDKAIDKARNAPFRAPLIITVVAKCEENHKVPRWEQEMSAGCAVMAMQMAAVAQGFGGIWRSGALTESPVVREAFGCREQDKIVGFLYLGTPQLKASTSINVPDPTPFVTYF
B15: Formate-dependent phosphoribosylglycinamide formyltransferase wild type, P33221 (protein)
chain: MTLLGTALRPAATRVMLLGSGELGKEVAIECQRLGVEVIAVDRYADAPAMHVAHRSHVINMLDGDALRRVVELEKPHYIVPEIEAIATDMLIQLEEEGLNVVPCARATKLTMNREGIRRLAAEELQLPTSTYRFADSESLFREAVADIGYPCIVKPVMSSSGKGQTFIRSAEQLAQAWKYAQQGGRAGAGRVIVEGVVKFDFEITLLTVSAVDGVHFCAPVGHRQEDGDYRESWQPQQMSPLALERAQEIARKVVLALGGYGLFGVELFVCGDEVIFSEVSPRPHDTGMVTLISQDLSEFALHVRAFLGLPVGGIRQYGPAASAVILPQLTSQNVTFDNVQNAVGADLQIRLFGKPEIDGSRRLGVALATAESVVDAIERAKHAAGQVKVQG
B16: Phosphoribosylaminoimidazole-succinocarboxamide synthase wild type, P0A7D7 (protein)
chain: MQKQAELYRGKAKTVYSTENPDLLVLEFRNDTSAGDGARIEQFDRKGMVNNKFNYFIMSKLAEAGIPTQMERLLSDTECLVKKLDMVPVECVVRNRAAGSLVKRLGIEEGIELNPPLFDLFLKNDAMHDPMVNESYCETFGWVSKENLARMKELTYKANDVLKKLFDDAGLILVDFKLEFGLYKGEVVLGDEFSPDGSRLWDKETLEKMDKDRFRQSLGGLIEAYEAVARRLGVQLD
B17: Phenylalanine--tRNA ligase alpha subunit wild type, P08312 (protein)
chain: MSHLAELVASAKAAISQASDVAALDNVRVEYLGKKGHLTLQMTTLRELPPEERPAAGAVINEAKEQVQQALNARKAELESAALNARLAAETIDVSLPGRRIENGGLHPVTRTIDRIESFFGELGFTVATGPEIEDDYHNFDALNIPGHHPARADHDTFWFDTTRLLRTQTSGVQIRTMKAQQPPIRIIAPGRVYRNDYDQTHTPMFHQMEGLIVDTNISFTNLKGTLHDFLRNFFEEDLQIRFRPSYFPFTEPSAEVDVMGKNGKWLEVLGCGMVHPNVLRNVGIDPEVYSGFAFGMGMERLTMLRYGVTDLRSFFENDLRFLKQFK

The conditions of this series: Escherichia coli (strain K12); pH 7.5; Thermal; Intensity; HEPES 20mM; transition: 2; whole UniProt chain shown.
Consider B1, for which the Tm came to 44.6 °C. In the case of B2 it was 43.9 °C.

With B3, the Tm turned out to be 43.5 °C. Turning to B4, the Tm amounted to 44.5 °C. In the case of B5 it was 44.2 °C; in that of B6, 44 °C. In the case of B7 it was 45 °C; in that of B8, 44.4 °C.

Take B9: the Tm turned out to be 43.7 °C. For B10, the Tm is 44.3 °C. For B11 the value was 44.9 °C.

B12: the Tm is 45 °C. In the case of B13, the Tm is 45.6 °C. For B14 the value was 45.3 °C. For B15 the value was 43.4 °C; for B16, 43.1 °C. In the case of B17 it was 43.3 °C.

By Tm is commonly meant the temperature at which the thermal transition is half complete.
